Results reported in article PMC6555819, “Comprehensive study of nuclear receptor DNA binding provides a revised framework for understanding receptor specificity”.
Numbering of substitutions follows the chain as printed.

B1: NRC3_wobSeed49_DR2_T8A_o1 (dsDNA)
DNA 1: GCCAAACAAGGTCAAGAGGTCAAAGTCCGCTTCCCGGCGATTGACAGCGTAGAATGAAGG
DNA 2: CCTTCATTCTACGCTGTCAATCGCCGGGAAGCGGACTTTGACCTCTTGACCTTGTTTGGC
B2: NRC3_wobSeed101_DR4_C8G_o1 (dsDNA)
DNA 1: GCCCTTAGGGGTCACTCCAGGTTATAGCATCGGAGTGCGATTGACAGCGTAGAATGAAGG
DNA 2: CCTTCATTCTACGCTGTCAATCGCACTCCGATGCTATAACCTGGAGTGACCCCTAAGGGC
B3: NRC3_wobSeed1_DR0_T8G_o1 (dsDNA)
DNA 1: GCCAAACGAGGTCAAGGTCAAAGTCGGTTTGTGCCAGCGATTGACAGCGTAGAATGAAGG
DNA 2: CCTTCATTCTACGCTGTCAATCGCTGGCACAAACCGACTTTGACCTTGACCTCGTTTGGC
B4: NRC3_wobSeed25_DR1_T8A_o1 (dsDNA)
DNA 1: GCCAAACAAGGTCAAAGGTCAAAGTCGAGCCAACCAGCGATTGACAGCGTAGAATGAAGG
DNA 2: CCTTCATTCTACGCTGTCAATCGCTGGTTGGCTCGACTTTGACCTTTGACCTTGTTTGGC
B5: NRC3_wobSeed25_DR1_T8G_o1 (dsDNA)
DNA 1: B4 DNA 1 with A8G
DNA 2: B4 DNA 2 with T53C
B6: NRC3_wobSeed77_DR3_C8G_o1 (dsDNA)
DNA 1: GCACTTAGGGGTCAACGAGGTTATAGCACGCGTATAGCGATTGACAGCGTAGAATGAAGG
DNA 2: CCTTCATTCTACGCTGTCAATCGCTATACGCGTGCTATAACCTCGTTGACCCCTAAGTGC
B7: NRC3_random_hg19_67_o1 (dsDNA)
DNA 1: GCCTGGCTGGGCATGGTGGCTCATGCCTGTAATCCCGCGATTGACAGCGTAGAATGAAGG
DNA 2: CCTTCATTCTACGCTGTCAATCGCGGGATTACAGGCATGAGCCACCATGCCCAGCCAGGC
B8: NRC3_wobSeed109_DR4_C7A_o1 (dsDNA)
DNA 1: GCCGTCAAAGGTCATAGGAGGTCAGTGAAGACAGATGCGATTGACAGCGTAGAATGAAGG
DNA 2: CCTTCATTCTACGCTGTCAATCGCATCTGTCTTCACTGACCTCCTATGACCTTTGACGGC
B9: NRC3_wobSeed121_DR5_T8A_o1 (dsDNA)
DNA 1: GCCAAACAAGGTCACCGGAAGGTCAAAGTCCGCATGGCGATTGACAGCGTAGAATGAAGG
DNA 2: CCTTCATTCTACGCTGTCAATCGCCATGCGGACTTTGACCTTCCGGTGACCTTGTTTGGC
B10: NRC3_wobSeed121_DR5_T8G_o1 (dsDNA)
DNA 1: B9 DNA 1 with A8G
DNA 2: B9 DNA 2 with T53C
B11: NRC3_wobSeed99_DR4_A12T_o1 (dsDNA)
DNA 1: GCTCTCGGAGGTCACGAAAGGTCAGAGCTCGACATCGCGATTGACAGCGTAGAATGAAGG
DNA 2: CCTTCATTCTACGCTGTCAATCGCGATGTCGAGCTCTGACCTTTCGTGACCTCCGAGAGC
B12: NRC3_wobSeed117_DR4_A23C_o1 (dsDNA)
DNA 1: GCCGTCAAAGTTCAACTAAGGTCACGTAAAGCACGCGCGATTGACAGCGTAGAATGAAGG
DNA 2: CCTTCATTCTACGCTGTCAATCGCGCGTGCTTTACGTGACCTTAGTTGAACTTTGACGGC
B13: NRC3_wobSeed73_DR3_T8G_o1 (dsDNA)
DNA 1: GCCAAACGAGGTCACAGAGGTCAAAGTCCGTGCGTAGCGATTGACAGCGTAGAATGAAGG
DNA 2: CCTTCATTCTACGCTGTCAATCGCTACGCACGGACTTTGACCTCTGTGACCTCGTTTGGC

target: THRa:RXRa (Homo sapiens, UniProt P10827;P19793 full;full); test: no ligand; PBM; 90 nM : 90 nM RXRa; PBS pH 7.4, 2% milk, 0.02% Triton X-100, 1 mM DTT, BSA, 0.4 mg/ml salmon testes DNA; details: tags: His kept;His cleaved; copies: 1;1; label: surface-attached array probe

Binder	binding signal
B1	4.99 PBM z-score against 500 random probes
B2	5.63 PBM z-score against 500 random probes
B3	4.94 PBM z-score against 500 random probes
B4	5.07 PBM z-score against 500 random probes
B5	5.46 PBM z-score against 500 random probes
B6	4.82 PBM z-score against 500 random probes
B7	-0.95 PBM z-score against 500 random probes
B8	5.57 PBM z-score against 500 random probes
B9	5.05 PBM z-score against 500 random probes
B10	5.39 PBM z-score against 500 random probes
B11	5.45 PBM z-score against 500 random probes
B12	5.72 PBM z-score against 500 random probes
B13	5.25 PBM z-score against 500 random probes

target: FXR:RXRa (Homo sapiens, UniProt Q96RI1;P19793 full;full); test: no ligand; PBM; 270 nM : 90 nM RXRa; PBS pH 7.4, 2% milk, 0.02% Triton X-100, 1 mM DTT, BSA, 0.4 mg/ml salmon testes DNA; details: tags: His kept;His cleaved; copies: 1;1; label: surface-attached array probe
Outline: (§1)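 Binding z-scores were set against random background probes. The data came from custom Agilent 4×180K protein-binding microarrays carrying double-stranded probes with 34-nt variable regions, incubated 1 h with ligand-free nuclear receptor dimers. Partner-specific antibodies detected binding, and scanned fluorescence was regression-normalized.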

Binder	binding signal
B1	8.52 PBM z-score against 500 random probes
B2	8.32 PBM z-score against 500 random probes
B3	8.73 PBM z-score against 500 random probes
B4	9.54 PBM z-score against 500 random probes
B5	9.93 PBM z-score against 500 random probes
B6	9.08 PBM z-score against 500 random probes
B8	8.92 PBM z-score against 500 random probes
B9	8.52 PBM z-score against 500 random probes
B10	8.64 PBM z-score against 500 random probes
B11	8.33 PBM z-score against 500 random probes
B12	7.83 PBM z-score against 500 random probes
B13	9.18 PBM z-score against 500 random probes

target: RARb:RXRa (Homo sapiens, UniProt P10826;P19793 full;full); test: as above; details: tags: His kept;His cleaved; copies: 1;1; label: surface-attached array probe
Sequence (P10826 whole entry, chain 1 of 2): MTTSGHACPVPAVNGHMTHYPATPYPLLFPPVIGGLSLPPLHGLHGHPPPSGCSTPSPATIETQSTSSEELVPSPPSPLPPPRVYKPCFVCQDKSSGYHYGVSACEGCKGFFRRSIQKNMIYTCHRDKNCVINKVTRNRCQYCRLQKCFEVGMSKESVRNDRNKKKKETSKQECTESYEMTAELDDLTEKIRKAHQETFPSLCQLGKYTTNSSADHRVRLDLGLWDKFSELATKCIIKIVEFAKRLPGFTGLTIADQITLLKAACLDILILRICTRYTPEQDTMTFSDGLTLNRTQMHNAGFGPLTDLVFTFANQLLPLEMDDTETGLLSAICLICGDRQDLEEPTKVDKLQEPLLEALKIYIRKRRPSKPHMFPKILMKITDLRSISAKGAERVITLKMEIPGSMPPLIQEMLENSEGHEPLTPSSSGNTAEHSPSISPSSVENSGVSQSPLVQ
Sequence (P19793 whole entry, chain 2 of 2): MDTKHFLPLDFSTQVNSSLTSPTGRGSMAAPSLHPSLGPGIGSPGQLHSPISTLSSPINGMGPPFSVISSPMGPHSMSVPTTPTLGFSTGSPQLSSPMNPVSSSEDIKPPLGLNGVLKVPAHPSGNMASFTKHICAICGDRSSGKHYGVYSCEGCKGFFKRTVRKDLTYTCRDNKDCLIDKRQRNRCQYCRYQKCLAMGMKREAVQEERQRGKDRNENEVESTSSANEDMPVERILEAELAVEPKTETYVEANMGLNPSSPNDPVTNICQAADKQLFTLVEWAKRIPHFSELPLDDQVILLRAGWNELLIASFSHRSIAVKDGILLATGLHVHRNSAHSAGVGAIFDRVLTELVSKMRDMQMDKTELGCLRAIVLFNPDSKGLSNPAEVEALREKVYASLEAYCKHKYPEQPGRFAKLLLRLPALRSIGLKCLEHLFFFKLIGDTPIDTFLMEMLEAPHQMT
Outline: as §1

Binder	binding signal
B1	6.31 PBM z-score against 500 random probes
B3	5.8 PBM z-score against 500 random probes
B4	6.19 PBM z-score against 500 random probes
B5	6.33 PBM z-score against 500 random probes
B6	5.68 PBM z-score against 500 random probes
B8	6.2 PBM z-score against 500 random probes
B9	6.21 PBM z-score against 500 random probes
B10	6.23 PBM z-score against 500 random probes
B11	6.17 PBM z-score against 500 random probes
B12	6.07 PBM z-score against 500 random probes
B13	5.94 PBM z-score against 500 random probes

target: RARa:RXRa (Homo sapiens, UniProt P10276;P19793 full;full); test: as above; details: tags: His kept;His cleaved; copies: 1;1; label: surface-attached array probe
Sequence (P10276 whole entry, chain 1 of 2): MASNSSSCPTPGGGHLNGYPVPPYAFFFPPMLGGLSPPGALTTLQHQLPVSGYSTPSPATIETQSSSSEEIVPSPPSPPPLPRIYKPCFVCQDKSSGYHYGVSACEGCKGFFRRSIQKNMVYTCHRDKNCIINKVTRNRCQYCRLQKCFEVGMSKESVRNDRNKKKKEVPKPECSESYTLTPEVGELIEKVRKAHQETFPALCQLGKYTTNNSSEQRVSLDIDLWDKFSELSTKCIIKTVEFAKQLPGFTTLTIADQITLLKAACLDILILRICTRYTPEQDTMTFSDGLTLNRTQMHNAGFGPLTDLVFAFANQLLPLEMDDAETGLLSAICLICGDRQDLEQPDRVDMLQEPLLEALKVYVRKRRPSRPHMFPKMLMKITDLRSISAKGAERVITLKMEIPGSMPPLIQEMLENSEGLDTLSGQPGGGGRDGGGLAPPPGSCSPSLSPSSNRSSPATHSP
Sequence (P19793 whole entry, chain 2 of 2): as the sequence (P19793 whole entry, chain 2 of 2) above
Outline: as §1

Binder	binding signal
B1	9.05 PBM z-score against 500 random probes
B2	7.45 PBM z-score against 500 random probes
B3	7.18 PBM z-score against 500 random probes
B4	9.67 PBM z-score against 500 random probes
B5	9.62 PBM z-score against 500 random probes
B6	7.93 PBM z-score against 500 random probes
B7	-0.94 PBM z-score against 500 random probes
B8	7.3 PBM z-score against 500 random probes
B9	8.86 PBM z-score against 500 random probes
B10	8.77 PBM z-score against 500 random probes
B11	7.86 PBM z-score against 500 random probes
B12	7.16 PBM z-score against 500 random probes
B13	9.08 PBM z-score against 500 random probes

target: LXRa:RXRa (Homo sapiens, UniProt Q13133;P19793 full;full); test: as above; details: tags: His kept;His cleaved; copies: 1;1; label: surface-attached array probe
Outline: as §1

Binder	binding signal
B1	7.44 PBM z-score against 500 random probes
B2	8.6 PBM z-score against 500 random probes
B3	6.82 PBM z-score against 500 random probes
B4	8.24 PBM z-score against 500 random probes
B5	8.54 PBM z-score against 500 random probes
B6	7.15 PBM z-score against 500 random probes
B8	8.48 PBM z-score against 500 random probes
B9	7.26 PBM z-score against 500 random probes
B10	7.39 PBM z-score against 500 random probes
B11	8.32 PBM z-score against 500 random probes
B12	8.08 PBM z-score against 500 random probes
B13	7.82 PBM z-score against 500 random probes

target: PPARa:RXRa (Homo sapiens, UniProt Q07869;P19793 full;full); test: as above; details: tags: GST kept;His cleaved; copies: 1;1; label: surface-attached array probe
Outline: as §1

Binder	binding signal
B1	7.02 PBM z-score against 500 random probes
B2	6.76 PBM z-score against 500 random probes
B3	6.72 PBM z-score against 500 random probes
B6	7.03 PBM z-score against 500 random probes
B8	7.01 PBM z-score against 500 random probes
B10	7.14 PBM z-score against 500 random probes
B11	6.75 PBM z-score against 500 random probes
B13	7.16 PBM z-score against 500 random probes

target: LXRb:RXRa (Homo sapiens, UniProt P55055;P19793 full;full); test: as above; details: tags: His kept;His cleaved; copies: 1;1; label: surface-attached array probe
Sequence (P55055 whole entry, chain 1 of 2): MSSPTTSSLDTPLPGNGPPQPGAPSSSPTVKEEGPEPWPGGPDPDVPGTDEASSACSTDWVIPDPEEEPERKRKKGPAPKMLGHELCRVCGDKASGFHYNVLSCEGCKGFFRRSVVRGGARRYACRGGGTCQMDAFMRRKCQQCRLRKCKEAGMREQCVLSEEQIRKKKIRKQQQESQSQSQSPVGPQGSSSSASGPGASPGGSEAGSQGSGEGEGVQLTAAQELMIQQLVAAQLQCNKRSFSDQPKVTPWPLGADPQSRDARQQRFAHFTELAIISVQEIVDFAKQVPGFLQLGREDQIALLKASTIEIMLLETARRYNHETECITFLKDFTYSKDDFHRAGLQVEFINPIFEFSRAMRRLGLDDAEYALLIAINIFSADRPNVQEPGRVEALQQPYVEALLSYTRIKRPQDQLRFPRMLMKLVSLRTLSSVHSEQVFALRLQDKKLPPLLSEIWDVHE
Sequence (P19793 whole entry, chain 2 of 2): as the sequence (P19793 whole entry, chain 2 of 2) above
Outline: as §1

Binder	binding signal
B1	6.73 PBM z-score against 500 random probes
B2	7.21 PBM z-score against 500 random probes
B3	6.16 PBM z-score against 500 random probes
B4	8.13 PBM z-score against 500 random probes
B5	8.31 PBM z-score against 500 random probes
B6	6.91 PBM z-score against 500 random probes
B8	7.17 PBM z-score against 500 random probes
B9	7.08 PBM z-score against 500 random probes
B10	7.15 PBM z-score against 500 random probes
B11	7.35 PBM z-score against 500 random probes
B12	7.09 PBM z-score against 500 random probes
B13	7.74 PBM z-score against 500 random probes

target: RARg:RXRa (Homo sapiens, UniProt P13631;P19793 full;full); test: as above; details: tags: His kept;His cleaved; copies: 1;1; label: surface-attached array probe
Sequence (P13631 whole entry, chain 1 of 2): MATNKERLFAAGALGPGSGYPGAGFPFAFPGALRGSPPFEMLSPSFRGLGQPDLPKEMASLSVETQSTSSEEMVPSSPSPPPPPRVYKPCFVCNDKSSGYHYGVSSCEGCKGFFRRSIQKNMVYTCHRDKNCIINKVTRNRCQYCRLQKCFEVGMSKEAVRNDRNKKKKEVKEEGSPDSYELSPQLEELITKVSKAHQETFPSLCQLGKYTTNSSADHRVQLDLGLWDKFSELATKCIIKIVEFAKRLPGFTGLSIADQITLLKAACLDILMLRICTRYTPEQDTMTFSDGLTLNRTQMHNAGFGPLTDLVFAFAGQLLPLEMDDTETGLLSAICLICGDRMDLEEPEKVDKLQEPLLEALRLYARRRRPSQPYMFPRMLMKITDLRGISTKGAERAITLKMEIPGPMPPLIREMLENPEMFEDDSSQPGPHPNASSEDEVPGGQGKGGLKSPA
Sequence (P19793 whole entry, chain 2 of 2): as the sequence (P19793 whole entry, chain 2 of 2) above
Outline: as §1

Binder	binding signal
B1	9.11 PBM z-score against 500 random probes
B2	7.43 PBM z-score against 500 random probes
B3	7.53 PBM z-score against 500 random probes
B4	9.65 PBM z-score against 500 random probes
B5	9.68 PBM z-score against 500 random probes
B6	8.09 PBM z-score against 500 random probes
B8	8.29 PBM z-score against 500 random probes
B9	9.36 PBM z-score against 500 random probes
B10	9.6 PBM z-score against 500 random probes
B11	8.59 PBM z-score against 500 random probes
B12	7.95 PBM z-score against 500 random probes
B13	8.72 PBM z-score against 500 random probes

target: VDR:RXRa (Homo sapiens, UniProt P11473;P19793 full;full); test: as above; details: tags: His kept;His cleaved; copies: 1;1; label: surface-attached array probe
Outline: as §1

Binder	binding signal
B1	7.22 PBM z-score against 500 random probes
B2	6.64 PBM z-score against 500 random probes
B3	6.53 PBM z-score against 500 random probes
B4	7.62 PBM z-score against 500 random probes
B5	8.02 PBM z-score against 500 random probes
B6	8.74 PBM z-score against 500 random probes
B8	7.29 PBM z-score against 500 random probes
B9	7.25 PBM z-score against 500 random probes
B10	7.56 PBM z-score against 500 random probes
B11	6.9 PBM z-score against 500 random probes
B12	7.49 PBM z-score against 500 random probes
B13	8.86 PBM z-score against 500 random probes

target: PXR:RXRa (Homo sapiens, UniProt O75469;P19793 full;full); test: as above; details: tags: His kept;His cleaved; copies: 1;1; label: surface-attached array probe
Sequence (O75469 whole entry, chain 1 of 2): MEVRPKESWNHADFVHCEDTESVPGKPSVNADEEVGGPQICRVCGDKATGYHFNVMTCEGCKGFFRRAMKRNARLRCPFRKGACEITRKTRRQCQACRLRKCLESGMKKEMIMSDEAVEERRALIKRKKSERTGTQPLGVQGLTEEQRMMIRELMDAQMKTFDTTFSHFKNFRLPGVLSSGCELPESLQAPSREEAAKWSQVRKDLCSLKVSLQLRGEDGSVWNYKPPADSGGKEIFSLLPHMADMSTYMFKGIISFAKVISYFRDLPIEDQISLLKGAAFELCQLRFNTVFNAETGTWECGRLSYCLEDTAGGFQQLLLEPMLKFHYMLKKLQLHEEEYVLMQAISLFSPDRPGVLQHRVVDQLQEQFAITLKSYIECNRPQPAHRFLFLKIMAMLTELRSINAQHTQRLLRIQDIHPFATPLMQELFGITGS
Sequence (P19793 whole entry, chain 2 of 2): as the sequence (P19793 whole entry, chain 2 of 2) above
Outline: as §1

Binder	binding signal
B1	7.38 PBM z-score against 500 random probes
B2	7.15 PBM z-score against 500 random probes
B3	6.83 PBM z-score against 500 random probes
B4	7.73 PBM z-score against 500 random probes
B5	7.89 PBM z-score against 500 random probes
B6	7.16 PBM z-score against 500 random probes
B8	7.51 PBM z-score against 500 random probes
B9	7.43 PBM z-score against 500 random probes
B10	7.41 PBM z-score against 500 random probes
B11	7.53 PBM z-score against 500 random probes
B12	7.87 PBM z-score against 500 random probes
B13	8.14 PBM z-score against 500 random probes

target: PPARg:RXRa (Homo sapiens, UniProt P37231;P19793 full;full); test: no ligand; PBM; 180 nM : 90 nM RXRa; PBS pH 7.4, 2% milk, 0.02% Triton X-100, 1 mM DTT, BSA, 0.4 mg/ml salmon testes DNA; details: tags: His kept;His cleaved; copies: 1;1; label: surface-attached array probe

Binder	binding signal
B7	-1.37 PBM z-score against 500 random probes

target: RXRa (Homo sapiens, UniProt P19793); test: no ligand; PBM; 180 nM; PBS pH 7.4, 2% milk, 0.02% Triton X-100, 1 mM DTT, BSA, 0.4 mg/ml salmon testes DNA; details: tags: His cleaved; chain copies: 2; label: surface-attached array probe

Binder	binding signal
B1	9.65 PBM z-score against 500 random probes
B2	8.62 PBM z-score against 500 random probes
B3	8.3 PBM z-score against 500 random probes
B4	11.2 PBM z-score against 500 random probes
B5	11 PBM z-score against 500 random probes
B6	9.89 PBM z-score against 500 random probes
B8	8.51 PBM z-score against 500 random probes
B9	8.89 PBM z-score against 500 random probes
B10	9.51 PBM z-score against 500 random probes
B11	8.83 PBM z-score against 500 random probes
B13	9.83 PBM z-score against 500 random probes
